As a reminder, the EC50 is the concentration giving half of the maximal effect. A higher EC50 goes with a need for much substance.

The target of experiment [1] is GII.4 Houston 2002 (ABY27560.1) VLPs (human norovirus GII.4 Houston 2002, UniProt P54635 1-539). Description: ELISA, VLP. For orientation: In an ELISA, binding on a coated surface is turned into a signal by an enzyme label.
Experiment [2] concerns the target GII.4 Sydney 2012 virus-like particles (VLPs), based on strain AFV08795.1 (human norovirus GII.4 Sydney 2012, UniProt P54635 1-538, The particle is a multimeric assembly of VP1 with a little VP2 inside; one VP1 chain is given.). Briefly: indirect ELISA, VLP coated.

B1: NORO-329A (antibody, V domains shown)
VH: QVQLVESGGGLVKPGGSLRLSCAASGFTFSDYYMSWIRQAPGKGLEWISYISSSFGSTDYAGSMKGRFTISRDNAKNSLYLQMNSLRAEDTAVYYCARYNYYGSGSFVFDYWGQGTLVTVSS
VL: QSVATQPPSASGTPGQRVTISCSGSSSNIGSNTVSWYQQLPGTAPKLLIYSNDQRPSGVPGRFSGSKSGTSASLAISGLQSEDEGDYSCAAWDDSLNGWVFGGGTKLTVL
Regarding B1, the “fold higher binding EC50 than to GII.4 Sydney 2012 VLPs” value in experiment [1] is more than 10 fold. This molecule also returned an EC50 in experiment [2] of 0.2 µg/mL.

B2: NORO-115 (antibody, V domains shown)
VH: QVQLVESGGGLVKPGGSLRLSCTASGITISGYYMSWIRQAPGKGLEWIVYINTSGRTIYYADSVKGRFSVSRDNAKESLYLQMDSLTVDDTGIYYCARDRLPASGSHWFHPWGQGTLVTVSS
VL: DIVMTQSPDSLAVSLGGRATINCKSSQSVLYTSDNKNYLAWYQQQPGQPPKLLISWASTRESGVPDRFSGSGSGTDFTLTISNLQAEDVAVYYCQQYYNSPLAFGGGTKVEIK
With B2, the “fold higher binding EC50 than to GII.4 Sydney 2012 VLPs” value in experiment [1] was more than 10 fold. The molecule further showed an EC50 in experiment [2] of 0.1 µg/mL.

The values above are taken from patent US20230054956A1 (VANDERBILT UNIVERSITY, published 2023).
